Measurements taken from patent publication JP2015180626A (dated 2015).

Target: RSV Fタンパク質 (RSV A2ウイルス) (respiratory syncytial virus (RSV) A2, UniProt P03420 26-574)
Test: cell-based or functional assay

Sequence of RSV Fタンパク質 (RSV A2ウイルス) (P03420 26-574): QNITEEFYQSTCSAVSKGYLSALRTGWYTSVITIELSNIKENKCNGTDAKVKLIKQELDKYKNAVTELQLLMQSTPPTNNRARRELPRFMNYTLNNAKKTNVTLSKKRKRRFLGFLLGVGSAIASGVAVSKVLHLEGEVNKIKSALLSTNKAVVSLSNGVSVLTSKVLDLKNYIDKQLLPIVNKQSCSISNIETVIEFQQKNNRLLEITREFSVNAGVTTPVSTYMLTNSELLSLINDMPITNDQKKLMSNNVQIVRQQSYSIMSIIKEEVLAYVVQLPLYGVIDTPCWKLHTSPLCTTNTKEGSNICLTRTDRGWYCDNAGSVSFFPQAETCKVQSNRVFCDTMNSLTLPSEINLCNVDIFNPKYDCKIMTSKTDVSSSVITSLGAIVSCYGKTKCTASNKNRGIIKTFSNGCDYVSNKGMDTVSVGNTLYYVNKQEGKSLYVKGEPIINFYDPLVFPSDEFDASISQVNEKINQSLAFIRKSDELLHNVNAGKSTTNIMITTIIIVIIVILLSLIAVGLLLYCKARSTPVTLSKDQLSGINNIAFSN

B1: AM22 (antibody, V domains shown)
VH: QVQLVQSGAEVKKPGATVKVSCKISGHTLIKLSIHWVRQAPGKGLEWMGGYEGEVDEIFYAQKFQHRLTVIADTATDTVYMELGRLTSDDTAVYFCGTLGVTVTEAGLGIDDYWGQGTLVTVSS
VL: EIVLTQSPGTLSLSPGERATLSCRASQIVSRNHLAWYQQKPGQAPRLLIFGASSRATGIPVRFSGSGSGTDFTLTINGLAPEDFAVYYCLSSDSSIFTFGPGTKVDFK
- RSV-A2ウイルスに対する中央値半分最大阻害濃度(IC 50 ) (neutralisation of RSV A2 on HEp2 cells): 1.15 ng/mL
